From PMC9760430, “A stapled chromogranin A-derived peptide homes in on tumors that express αvβ6 or αvβ8 integrins” (International Journal of Biological Sciences, 2023)

Tested on: orthotopically implanted BxPC-3 tumors
Assay: NIR-fluorescence imaging, orthotopic BxPC-3 pancreatic adenocarcinoma in nude mice
Conditions: ex vivo NIR fluorescence, 24 h after 1.2 nmol i.v.
Method: Mice were injected with peptide-IRDye conjugate (~1 nmol) into the tail vein and imaged at various time points (0-72 h) using the IVIS Spectrum CT Imaging System (PerkinElmer) (see Supplemental Materials). For blocking experiments, mice were injected intravenously with unlabeled peptide 5a (128 nmol/mouse) 10 min before 5a-IRDye.
Figure 3 5a-IRDye homes in on orthotopically implanted BxPC-3 tumors. Nu/nu mice were orthotopically implanted with a Matrigel solution containing BxPC-3 cells or a Matrigel solution without cells (n=3-4 mice). After 18 days, mice were injected i.v. with 5a-IRDye (1.2 nmol), and NIR images were acquired after 24 h. A control mouse, which was not surgically manipulated, was injected with the vehicle and used as a reference for quantification of autofluorescence in the NIR region. (A) Representative fluorescence images of the exposed pancreas of control and tumor-bearing mice injected with or without 5a-IRDye as indicated. (B) Ex vivo fluorescence imaging and photographs of the removed pancreas. […]
Images were acquired with three-four mice simultaneously. […] For the quantification of the fluorescence uptake by the exposed pancreas the left kidney was surgically removed before imaging. Regions of interest (ROI) were drawn on the images, and the average (Avg) radiant efficiency was calculated using the Living Image 4.3.1 software (PerkinElmer). […]

For `CC[C@H](C)[C@H](NC(=O)[C@H](CCCNC(=N)N)NC(=O)[C@H](CC(C)C)NC(=O)[C@H](CC(=O)O)NC(=O)CNC(=O)[C@H](CCCNC(=N)N)NC(=O)[C@H](CC(C)C)NC(=O)[C@@H](NC(=O)[C@H](CCC(=O)O)NC(=O)[C@H](Cc1ccccc1)NC(=O)[C@@H](N)CSC1CC(=O)N(CCNC(=O)CCCCCN2C(=CC=C3CCCC(C=CC4=[N+](CCCCS(=O)(=O)[O-])c5ccc(S(=O)(=O)O)cc5C4(C)C)=C3Oc3ccc(S(=O)(=O)O)cc3)C(C)(C)c3cc(S(=O)(=O)O)ccc32)C1=O)[C@@H](C)O)C(=O)N[C@@H](CC(C)C)C(=O)N[C@@H](CO)C(=O)N[C@H](C(=O)N[C@@H](CC(C)C)C(=O)N[C@@H](CCCNC(=N)N)C(=O)N[C@H]1Cc2cn(nn2)CCCC[C@@H](C(=O)N[C@@H](CCCCN)C(=O)N[C@@H](CCC(=O)O)C(=O)N[C@@H](CC(C)C)C(=O)N[C@@H](CCC(N)=O)C(=O)N[C@@H](CC(=O)O)C(N)=O)NC(=O)[C@H](CC(C)C)NC(=O)[C@H](CC(N)=O)NC(=O)[C@H](CCC(N)=O)NC1=O)[C@@H](C)CC` (stereo partly shown) [5a-IRDye], the “accumulation in other explanted organs” value was “accumulated also in kidney, lung, and liver, and little or not at all in heart, brain, muscle, bone, spleen, intestine, and stomach”.
